Experiments:
[1] = molecular target: murine IGF-1R(1-903)-Fc (murine; human) (UniProt Q60751); assay: SPR, Fab over receptor-Fc captured on M13-C06 surface
[2] = molecular target: murine IGF-1R(1-903)-Fc (murine; human) (UniProt Q60751); assay: SPR

Sequence of murine IGF-1R(1-903)-Fc (murine; human) (Q60751 31-933 limits assumed, form in doubt): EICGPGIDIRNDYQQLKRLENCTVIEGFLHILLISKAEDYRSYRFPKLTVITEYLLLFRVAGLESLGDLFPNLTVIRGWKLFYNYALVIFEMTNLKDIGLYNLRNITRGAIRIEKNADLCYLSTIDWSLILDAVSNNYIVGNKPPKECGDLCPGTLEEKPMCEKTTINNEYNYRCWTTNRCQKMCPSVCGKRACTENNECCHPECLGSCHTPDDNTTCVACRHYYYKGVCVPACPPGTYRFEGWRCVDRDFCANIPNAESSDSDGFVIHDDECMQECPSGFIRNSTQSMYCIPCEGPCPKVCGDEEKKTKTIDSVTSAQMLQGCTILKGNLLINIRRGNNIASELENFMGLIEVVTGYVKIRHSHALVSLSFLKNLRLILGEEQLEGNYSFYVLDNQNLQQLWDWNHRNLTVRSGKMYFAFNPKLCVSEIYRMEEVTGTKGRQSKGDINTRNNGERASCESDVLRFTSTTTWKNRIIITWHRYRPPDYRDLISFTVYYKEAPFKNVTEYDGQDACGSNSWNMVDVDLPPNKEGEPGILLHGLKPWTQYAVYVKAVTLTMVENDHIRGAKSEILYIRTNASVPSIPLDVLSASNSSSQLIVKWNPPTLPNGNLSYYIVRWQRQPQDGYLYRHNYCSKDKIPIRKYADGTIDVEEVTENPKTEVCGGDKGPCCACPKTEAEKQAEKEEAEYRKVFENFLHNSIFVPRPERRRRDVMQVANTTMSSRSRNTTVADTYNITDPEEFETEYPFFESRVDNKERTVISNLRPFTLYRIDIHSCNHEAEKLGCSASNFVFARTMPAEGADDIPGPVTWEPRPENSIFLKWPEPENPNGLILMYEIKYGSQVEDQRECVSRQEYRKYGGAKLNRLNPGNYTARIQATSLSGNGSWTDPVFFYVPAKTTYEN

- Biacore Relative RUmax [1]: 0
- fold decrease in binding against human IGF-1R [2]: 100 fold
B1: M13-C06 Fab (Fab, V domains shown)
VH: EVQLLESGGGLVQPGGSLRLSCAASGFTFSIYRMQWVRQAPGKGLEWVSGISPSGGTTWYADSVKGRFTISRDNSKNTLYLQMNSLRAEDTAVYYCARWSGGSGYAFDIWGQGTMVTVSS
VL: DIQMTQSPLSLSASVGDRVTITCQASRDIRNYLNWYQQKPGKAPKLLIYDASSLQTGVPSRFGGSGSGTDFSFTIGSLQPEDIATYYCQQFDSLPHTFGQGTKLEIK

Source: patent publication US20090092614A1
